This passage reports Kd results from US20040126379A1.

The target of this experiment is human CD44v6 on antigen-positive FaDu cells (human) (UniProt P16070). Nature of the experiment: flow cytometry (FACS) on antigen-positive FaDu cells, on ice 1 h, FITC-labeled anti-human IgG detection.

The Kd is the equilibrium constant for the complex coming apart. A higher Kd goes with lower affinity. BIWI 1 (from UniProt P0DOX5 2-449): the Kd was 1.8 nM. That is a single-digit nanomolar value.

B1: BIWA 4 (antibody, human IgG1, kappa, V domains shown)
VH: EVQLVESGGGLVKPGGSLRLSCAASGFTFSSYDMSWVRQAPGKGLEWVSTISSGGSYTYYLDSIKGRFTISRDNAKNSLYLQMNSLRAEDTAVYYCARQGLDYWGRGTLVTVSS
VL: EIVLTQSPATLSLSPGERATLSCSASSSINYIYWYQQKPGQAPRLLIYLTSNLASGVPARFSGSGSGTDFTLTISSLEPEDFAVYYCLQWSSNPLTFGGGTKVEIKR
As to B1, the Kd was determined as 1 nM.
